Assays:
[1] = target: GST-TSC2 fragment 1 (amino acids 910-1112) (UniProt P49816)
[2] = target: GST-TSC2 fragment 2 (amino acids 1357-1765) (UniProt P49816)
[3] = target: TSC2 fragment containing S1345 (UniProt P49816)
[4] = target: purified TSC2-F2 fragment (AMPK assay, contains T1227) (UniProt P49816)

Row | Substance | in vitro phosphorylation by purified kinase [1] | in vitro phosphorylation by purified kinase [2] | in vitro phosphorylation by immunoprecipitated kinase [3] | in vitro phosphorylation by immunoprecipitated kinase [4]
1 | GST-Akt (wild type) | Wild-type Akt, but not the kinase-inactive Akt-KM mutant, efficiently phosphorylated both fragment 1 and fragment 2 of TSC2 in vitro | Wild-type Akt, but not the kinase-inactive Akt-KM mutant, efficiently phosphorylated both fragment 1 and fragment 2 of TSC2 in vitro | – | –
2 | immunoprecipitated AMPK (in vitro kinase assay) | – | – | The TSC2 fragment was phosphorylated by immunoprecipitated AMPK, but not the kinase inactive AMPK mutant | In vitro phosphorylation of the purified TSC2-F2 fragment by immunoprecipitated AMPK showed that AMPK specifically phosphorylates TSC2 on T1227
